Holding throughout (experiment): Kinetic parameters for hydrolysis of maltose and isomaltose
Common to all, as to conditions: other: At 45°C using 0.05 M NaOAc, pH 4.5

Substrate in data set [1]: OC[C@H]1O[C@H](OC[C@H]2OC(O)[C@H](O)[C@@H](O)[C@@H]2O)[C@H](O)[C@@H](O)[C@@H]1O
The data set is classed as biochemical, Aspergillus niger. The procedure:
(§1) 50 microL enzyme diluted in sodium acetate is added,and the activity was determined using the AGU standard method described above. The kinetic parameters: Kcat and Km are measured at 45°C by adding 50 microL enzyme diluted in sodium acetate to preheated 750 microL substrate. Aliquots of 100 microL are removed after 0, 3, 6, 9 and 12 minutes and transferred to 100 microL 0.4M Sodium hydroxide to stop the reaction. A blank is included.
(§2) 20 microL is transferred to a Micro titre plates and 200 microL GOD-Perid solution is added. Absorbance is measured at 650 nm after 30 minutes incubation at room temperature. Glucose is used as standard, and the specific activity is calculated as kcat (sec. ^-1)
(§3) Kinetic Parameters for Hydrolysis of Maltose and Isomaltose by Aspergillus niger AMG and the recombinant Talaromyces emersonii AMG expressed in A. niger.

Substrate in data set [2]: OC[C@H]1O[C@H](O[C@H]2[C@H](O)[C@@H](O)[C@H](O)O[C@@H]2CO)[C@H](O)[C@@H](O)[C@@H]1O
The data set is classed as biochemical, Aspergillus niger. The procedure:
as §1, §2, §3

Substrate in data set [3]: OC[C@H]1O[C@H](OC[C@H]2OC(O)[C@H](O)[C@@H](O)[C@@H]2O)[C@H](O)[C@@H](O)[C@@H]1O
The data set is classed as biochemical, Talaromyces emersonii. Here is the method:
as §1, §2, §3

Substrate in data set [4]: OC[C@H]1O[C@H](O[C@H]2[C@H](O)[C@@H](O)[C@H](O)O[C@@H]2CO)[C@H](O)[C@@H](O)[C@@H]1O
In kind it is biochemical, Talaromyces emersonii. The procedure:
as §1, §2, §3

B1: Aspergillus niger AMG (glucoamylase G1), SEQ ID NO: 9 (Aspergillus niger) (protein)
chain: ATLDSWLSNEATVARTAILNNIGADGAWVSGADSGIVVASPSTDNPDYFYTWTRDSGLVLKTLVDLFRNGDTSLLSTIENYISAQAIVQGISNPSGDLSSGAGLGEPKFNVDETAYTGSWGRPQRDGPALRATAMIGFGQWLLDNGYTSTATDIVWPLVRNDLSYVAQYWNQTGYDLWEEVNGSSFFTIAVQHRALVEGSAFATAVGSSCSWCDSQAPEILCYLQSFWTGSFILANFDSSRSGKDANTLLGSIHTFDPEAACDDSTFQPCSPRALANHKEVVDSFRSIYTLNDGLSDSEAVAVGRYPEDTYYNGNPWFLCTLAAAEQLYDALYQWDKQGSLEVTDVSLDFFKALYSDAATGTYSSSSSTYSSIVDAVKTFADGFVSIVETHAASNGSMSEQYDKSDGEQLSARDLTWSYAALLTANNRRNSVVPASWGETSASSVPGTCAATSAIGTYSSVTVTSWPSIVATGGTTTTATPTGSGSVTSTSKTTATASKTSTSTSSTSCTTPTAVAVTFDLTATTTYGENIYLVGSISQLGDWETSDGIALSADKYTSSDPLWYVTVTLPAGESFEYKFIRIESDDSVEWESDPNREYTVPQACGTSTATVTDTWR
In the case of B1, in data set [1], the Michaelis-Menten constant (Km) stood at 19.8 mM, the turnover number (kcat) came out at 0.41 s⁻¹ and the kcat/Km amounted to 21 M⁻¹ s⁻¹. In data set [2], the Michaelis-Menten constant (Km) came to 1.2 mM, the catalytic constant (kcat) came out at 10.7 s⁻¹ and the kcat/Km was 8800 M⁻¹ s⁻¹.

B2: recombinant Talaromyces emersonii AMG (glucoamylase) expressed in A. niger, SEQ ID NO: 7 (Rasamsonia emersonii) (protein)
chain: ATGSLDSFLATETPIALQGVLNNIGPNGADVAGASAGIVVASPSRSDPNYFYSWTRDAALTAKYLVDAFIAGNKDLEQTIQQYISAQAKVQTISNPSGDLSTGGLGEPKFNVNETAFTGPWGRPQRDGPALRATALIAYANYLIDNGEASTADEIIWPIVQNDLSYITQYWNSSTFDLWEEVEGSSFFTTAVQHRALVEGNALATRLNHTCSNCVSQAPQVLCFLQSYWTGSYVLANFGGSGRSGKDVNSILGSIHTFDPAGGCDDSTFQPCSARALANHKVVTDSFRSIYAINSGIAEGSAVAVGRYPEDVYQGGNPWYLATAAAAEQLYDAIYQWKKIGSISITDVSLPFFQDIYPSAAVGTYNSGSTTFNDIISAVQTYGDGYLSIVEKYTPSDGSLTEQFSRTDGTPLSASALTWSYASLLTASARRQSVVPASWGESSASSVPAVCSATSATGPYSTATNTVWPSSGSGSSTTTSSAPCTTPTSVAVTFDEIVSTSYGETIYLAGSIPELGNWSTASAIPLRADAYTNSNPLWYVTVNLPPGTSFEYKFFKNQTDGTIVWEDDPNRSYTVPAYCGQTTAILDDSWQ
As to B2, in data set [3], the Km amounted to 53.6 mM, the kcat was found to be 2.70 s⁻¹ and the specificity constant (kcat/Km) turned out to be 50 M⁻¹ s⁻¹. In data set [4], the Km is 3.8 mM, the turnover number (kcat) was 30.6 s⁻¹ and the kcat/Km is 8100 M⁻¹ s⁻¹.

Usually Km stands for the substrate concentration at which the rate is half of its maximum. As a reminder, the kcat is the maximal rate divided by the concentration of active sites. For orientation: kcat/Km means the second-order rate constant that governs catalysis at low substrate concentration.

The values are drawn from patent EP1032654B1, “THERMOSTABLE GLUCOAMYLASE” (Novozymes A/S, priority 1997, dated 1999).
